# From IntAct's records for PubMed 21858081
# Molecular target: tppc9_human TRAPPC9 (UniProt Q96Q05)
# Sequence (Q96Q05 whole entry): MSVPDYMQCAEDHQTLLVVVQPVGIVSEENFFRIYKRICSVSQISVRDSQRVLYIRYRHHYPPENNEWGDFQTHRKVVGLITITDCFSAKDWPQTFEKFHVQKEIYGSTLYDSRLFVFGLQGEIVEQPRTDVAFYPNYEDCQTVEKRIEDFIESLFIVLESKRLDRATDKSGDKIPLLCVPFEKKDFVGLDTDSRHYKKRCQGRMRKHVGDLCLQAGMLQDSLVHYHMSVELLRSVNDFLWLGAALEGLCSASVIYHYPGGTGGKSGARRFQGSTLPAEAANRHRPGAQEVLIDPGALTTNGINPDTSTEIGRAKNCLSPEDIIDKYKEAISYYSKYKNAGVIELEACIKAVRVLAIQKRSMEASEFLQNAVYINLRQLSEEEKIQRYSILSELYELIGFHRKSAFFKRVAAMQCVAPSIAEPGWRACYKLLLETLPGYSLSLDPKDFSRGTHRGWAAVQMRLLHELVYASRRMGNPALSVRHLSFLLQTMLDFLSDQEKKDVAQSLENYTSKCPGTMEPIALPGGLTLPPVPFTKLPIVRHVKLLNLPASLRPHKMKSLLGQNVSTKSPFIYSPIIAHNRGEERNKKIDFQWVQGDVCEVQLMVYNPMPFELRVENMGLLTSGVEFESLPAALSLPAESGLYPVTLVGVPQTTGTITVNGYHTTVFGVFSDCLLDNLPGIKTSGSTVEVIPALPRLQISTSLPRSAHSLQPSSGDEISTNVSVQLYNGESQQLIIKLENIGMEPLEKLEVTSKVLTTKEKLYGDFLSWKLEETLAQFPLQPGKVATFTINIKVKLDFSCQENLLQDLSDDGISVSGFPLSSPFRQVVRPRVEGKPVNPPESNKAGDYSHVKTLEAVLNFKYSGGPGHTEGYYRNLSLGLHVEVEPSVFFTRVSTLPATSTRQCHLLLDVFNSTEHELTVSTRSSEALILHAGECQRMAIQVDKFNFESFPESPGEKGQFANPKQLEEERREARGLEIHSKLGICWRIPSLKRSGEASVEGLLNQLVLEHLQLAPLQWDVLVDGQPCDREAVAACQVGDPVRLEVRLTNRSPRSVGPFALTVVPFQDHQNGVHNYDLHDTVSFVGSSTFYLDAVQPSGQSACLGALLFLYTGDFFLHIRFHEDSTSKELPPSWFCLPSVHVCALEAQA
substance,measurement,value
Trafficking protein particle complex subunit 2 (Mus musculus) (from UniProt Q9CQP2) D47Y,effect of a mutation on the interaction,decreasing interaction strength
